{"source": "paper PMC5584161", "about": "“Selective compounds enhance osteoblastic activity by targeting HECT domain of ubiquitin ligase Smurf1” (Oncotarget, 2016)", "binders": {"B1": {"name": "GST-Smurf1 (Smad ubiquitination regulatory factor-1) (enzyme, UniProt Q9HCE7-2 1-731, looked up)", "chain": "MSNPGTRRNGSSIKIRLTVLCAKNLAKKDFFRLPDPFAKIVVDGSGQCHSTDTVKNTLDPKWNQHYDLYVGKTDSITISVWNHKKIHKKQGAGFLGCVRLLSNAISRLKDTGYQRLDLCKLNPSDTDAVRGQIVVSLQTRDRIGTGGSVVDCRGLLENEGTVYEDSGPGRPLSCFMEEPAPYTDSTGAAAGGGNCRFVESPSQDQRLQAQRLRNPDVRGSLQTPQNRPHGHQSPELPEGYEQRTTVQGQVYFLHTQTGVSTWHDPRIPRDLNSVNCDELGPLPPGWEVRSTVSGRIYFVDHNNRTTQFTDPRLHHIMNHQCQLKEPSQPLPLPSEGSLEDEELPAQRYERDLVQKLKVLRHELSLQQPQAGHCRIEVSREEIFEESYRQIMKMRPKDLKKRLMVKFRGEEGLDYGGVAREWLYLLCHEMLNPYYGLFQYSTDNIYMLQINPDSSINPDHLSYFHFVGRIMGLAVFHGHYINGGFTVPFYKQLLGKPIQLSDLESVDPELHKSLVWILENDITPVLDHTFCVEHNAFGRILQHELKPNGRNVPVTEENKKEYVRLYVNWRFMRGIEAQFLALQKGFNELIPQHLLKPFDQKELELIIGGLDKIDLNDWKSNTRLKHCVADSNIVRWFWQAVETFDEERRARLLQFVTGSTRVPLQGFKALQGSTGAAGPRLFTIHLIDANTDNLPKAHTCFNRIDIPPYESYEKLYEKLLTAVEETCGFAVE", "notes": "Smurf1, HECT-type ubiquitin ligase; also called GST-tagged Smurf1; source: bacteria-expressed, immobilized on Glutathione-Sepharose 4B beads"}, "B2": {"name": "UbcH5c (enzyme)", "chain": "not shown", "notes": "UbcH5c, ubiquitin-conjugating enzyme (E2) of Smurf1; The methods say the assay is the same as GST-Smurf1 with His-Ub, so a His tag is likely; also called E2; source: prokaryotic expressed, purified"}}, "test_in_all_cases": "pull-down; GST fusion immobilized on Glutathione-Sepharose 4B beads, incubated with the partner for 8 h at 4°C; washed with GST-binding buffer (100 mM NaCl, 50 mM NaF, 2 mM EDTA, 1% NP-40); immunoblotting; also run with B06 and B75 where the paper says they had no effect", "settings_in_all_cases": "both partners purified", "key": {"His-Ub (ubiquitin)": {"molecular_target": "T1, His-Ub (ubiquitin) (UniProt P0CG48 1-76)", "T1 construct": "ubiquitin, single (mono) ubiquitin; also called mono-Ub; single Ub protein"}, "UbcH7": {"molecular_target": "T2, UbcH7 (UniProt P68036 1-154)", "T2 construct": "UbcH7, ubiquitin-conjugating enzyme (E2) of Smurf1; The methods say the assay is the same as GST-Smurf1 with His-Ub, so a His tag is likely; also called E2; source: prokaryotic expressed, purified", "T2 sequence (P68036 whole entry)": "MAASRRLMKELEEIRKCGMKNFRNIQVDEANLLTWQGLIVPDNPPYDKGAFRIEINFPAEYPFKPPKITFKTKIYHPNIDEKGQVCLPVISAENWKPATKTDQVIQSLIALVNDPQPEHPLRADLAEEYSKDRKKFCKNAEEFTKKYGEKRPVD"}, "[1]": {"molecular_target": "B1"}}, "data": [{"binder": "B1", "values": [{"measurement": "binding result", "setting": "His-Ub (ubiquitin)", "value": "binds"}, {"measurement": "binding result", "setting": "UbcH7", "value": "binds"}]}, {"binder": "B2", "values": [{"measurement": "binding result", "setting": "[1]", "value": "binds"}]}]}
